The values below come from paper PMC9320952 (Molecular Microbiology, 2022).

The data set concerns the molecule itself. Put plainly: negative staining electron microscopy.

B1: SepF (purified, freed from MBP-SepF by factor Xa) (natural protein, B. subtilis, UniProt O31728 1-151, looked up)
chain: MSMKNKLKNFFSMEDEEYEYEYIETERESHEEHEQKEKPAYNGNKPAGKQNVVSLQSVQKSSKVVLSEPRVYAEAQEIADHLKNRRAVVVNLQRIQHDQAKRIVDFLSGTVYAIGGDIQRIGSDIFLCTPDNVDVSGTISELISEDEHQRW
Turning to B1, the binding result was “binds”.
